Assay: protease stability score; higher = more stable; yeast display proteolysis, trypsin and chymotrypsin;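 also: log10 excess protease needed over predicted unfolded state with 0 meaning unfolded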

Sequence	protease stability score
DERNNKQADQFLRDMEKNDEHKLRKLADENVKFKIGDKVFRGWHDAVTEIATRIREMRVNVHRYDVKTHNGRVNLEIHQTAEYNGQPLNFSYIVIMEYQNGRLVRVNIRVSEEELKTMTQ	0.475
DERNQKEVADKMYTAFRHGDPRKINKLADKDVTARYGDKVVSGRDDMVRQIDEIRKSIDHMSITSIEVHNGKADATLRFVVNGRDLQMKLVIVIHNGKVKHLSVQFRDDEQKKVLER	-0.174
DERNQRNLEKMLKAQERGNPDLLEELVDKNVKIEVGDKSVHGREELHRQQDRRRKQATLRYDDLRMKVSGNKVRVDMKFQVNHDGKPEKATADATYEFDNGKLKHVSVRVRQ	-0.06
DERNREIVEEYFKAIKQGDEDRYKQMVDPNVHVEVGDRNYHGREHQARWMHRLRKHMRLVFNIRSIDVSGDKVKVKLDYEEEHNGEPRTNKMTVEFKFHNGKILKIKIQTRQ	2.08
DERNSELLKKVQEAWDHGDPRKLDEQMDPNAKVNVGDKNLHGKEQLRNTLEEDTRHSRVRVDYDSVTDHNGRVRASATFQDVINGKPVRDTFDFVAEVNNGKMKMLKVRVPEDNKRKLKR	0.022
DERQENNARKFFTAYLKGDEHKLTELMRDDVRLKIGDKEIHGRETALKTIHTLRRRQRIHIQVDNIEVDENHVEVHAKIEWEHNGQPDSQKVRIDIKFHNGRINYLQMDLRG	1.59
DERQIEQLKRYLEALKTGDKEKIKELLDPNARIVYGDKEVKGRENIAEQVKKRKDDSRYDWTSVDVKTSGDKLVMTARKVNNRNGRPHERQFTADIKIKNGRMQHLQFDSTG	-0.323
DERQLDLLRQFLHAVQHGDEDRLKELADPNAKFTVGDKTIHGMNTFARTVKRRRDQARFQYNVKSMEADGDKMEVRIQLHVDVNGRPINVEFTARAHVDGDKLKSLELRIPEEVLKKQES	0.037
DERQLKILVRILNAIHEGDPDTVKQLVDPNARVVIGDKVLHGMDEVRDTLHKWQEEQEVDLKDYRDNVHNGKADITAKAKVNQDGTPDHIRFKATAEFRNGRAKEVRINHDK	1.09
DERQNERFETLVKAIEEGDEDEAREQMDPNVRIEVGDKVIHGMDEFADTVRRTREELRVEFKIKRLRIKNGQVDVEMHVTFDHNGEPETARMVIKVNAHNGKIKNVVMRIHK	1.6
DERQNKEAFQRVAENITTNNPDEIMKQADPNVRFKYGDKEVHGRENVRDIVKEFNERVDRVQIDHVNVQGDKVNANATADVNGRKHRFQIHAVIKNGRLKFMQIHDQ	1.09
DERQNSQLHRQIEQAKQGDEEKVRQQMDENARARYGDKEVHGRTELARQQVRQWNEAKIDIEFKRVSAHENEIRVNVVMQFDVDGRPNRSTWTFKVRFHNGTIKQINAEIDPDEWDTLLK	0.506
DERQRSRAEEFMKNYQTGNEQNLDKLFDKNAKVHVGDKVVHGREQIREQNRREKEHLRFKIRHMDVEVRNGHVSVQVRMEREHNGHPQTVSVQFRNEQHNGQIKRFEREEQQ	0.258
DERQVERIDRHLKALEHGDEKTLVEMIDPNAHFSVGDKEIHGREEYAHQQRRRVKESRFQVTIKDVQVNGDTVHIKYTSDQKHNGQPREDSNVMVMDATGERIESAKVTKDQ	-0.418
DERQVKEIALEAAKAYISGNKEKLKKLGKEDVELEAGSHKYKGVEQMATVVEQFKKYGVELQITDVKVDGDKVKMRIQVHAGGTTWEFTMEIQVDGGRVDKMTIHLSEEMVKRIQKG	1.02
DERRLEEVARHIRRGDKKHLNRLADPNAQLQYGNQRYTGRERVQTFWRQMITRADHLRVQSVTIHNGRIDAKFEMRVNGNKVEYRLKVQIHNGKAQNVQVNYRDEEDEKRMEENLG	0.183
DERRLEQQQREYLKVLNTGNPDEMNELFDENASWQVGDKRYTGREEIERKLRELHNRVDQVRLDSYEVEPGRIKIDFQLDVNGVKVRITIILHYHNGRLQEVKMDVTDPEQWKHMQK	-0.011
DERRQAQQFADTFDDNMQENNEEEVVKMADPNAELTVGDKEYHGREEIQKWIKQIHDKVDHLEIHIKSVDVRNGRVTIRARVRVEHNGRQKTMSVDIKAEQKNGRFIIKTMTMG	1.47

Sequence	protease stability score
DERRQQEVLKRFIDALQTGDPQKLKELADPNAQVNVGDKTFHGRDELVRQVEDEKRRIDEFHVVSIENHGDHVTARFRKESDGHQTEFVMKAYVHNGKVQSVKIDSS	0.201
DERTLEQLLQDFINNMQTGDHQSLKDLLDENARVNIGDKTLSGRERVTTALKRLMRRVDHIQVDHYEVTNGEMNIDMQLEVNGVRVKVEVIIEVHNGKAKFIEFRVRNEEQWERVEG	1.84
DERTNTEMLKRLQHALQKNDPNEVRKLFDKDVQVQIGDKTLSGREQLLTEAEQRRKKIDDIEVTDMKSNPDHAVLSVVIKHNGRNRKVIYYIRWSNGKVRKVEERES	1.5
DERVADQFVRALRTNDEEQLVRLMDEDAKMRVGEKEIHGRESVQTYLRRFAQQADHVDIHHVHIQGDKVSIDAVVEFNGKRVRFSMQFTVEGEKVKDVTIEARDEDDKRKLDEIFR	1.79
DERVAHEFVKAINKGDPDRLNELADKNARAEVGDKTFHGREKLEQMWKQWKKMVDHIHIRRVRVHNGHIHVDYVVNIDGQNNQLEIKAVVENGKVQEVKIQVTDEQNQDKLRKKMD	1.25
DERVHEAFRRFVHALKEGDPDKIRENADEDVRIEVGDTEIQGRETLADRVEEEMKDMQIEYQIDSIKVHGNKAKVNMRVVKNHNGKPETRKFTVHVTFDNGKVKNVHVQDDR	1.3
DERVIQEIRKMFNTNNFDSIAKNADKDATASIGNKHVHGKDNVKKLLDQFSRQIDHIQIDSVHVQGEKFVAQMKVNINGRERTAEMRMEVHNGKIQRISITFTDPSAQQTIKERME	0.942
DERVKQQVETLERAVKHNDEDRLKELMDPNVRVRVGDRTVEGREEIAKQLVRTNNESRIEQKIDRVDVRGDKVHIDFQRREHHDGKPDSAKFNVLVKASNGRISEMEVHTNQ	-0.248
DERVKRLVEQWFRAIEHGDPDQERKYFDPNARVEIGDRELNGREEIAHDLKRRHDEMHLHLKSVTIRVEGDHAEVNVRFQQDHNGKPEQKVQHVVLHFRGDYVRKMEVRDTK	1.15
DERVKSQATEFVTALKRNDEKRLMELADKDVSVRYGDKVVHGRERVRETARHITEESRVEYDTVRVDVQGNQANVEMEATFDHNGKPDRAKVNIQINFHNGKIKRVRIDKKP	0.971
DERVNREWEKFIHAFESGNESQLKRLMDKDVRLTVGDKQIEGREEMARQLKKRRDQSRVSINIESVQHDGDKVHIQFHVTNNKNGRPEKRTSVVTVEAHNGKLKEVNIDDKP	0.803
DERWKEKFEQMVRDQKTGNEDEVAKYFDKNAEIKVGDQRFHGREQLREHLREQRRQMRVDIDIKHVDVKGNHITVEYEFRENHNGRPTRRKATLRAEYHNGKIQRMRIDKSG	1.33
DESAAERFDEFMRNVDTNNEHKLKEYADPNAKVQYGDKVLHGMDQIIHDIRRYMEEMRVRVDFKRYDAQGNELSFVADYSAEYNGEPVNDNVTFHVEAHNGKLKDMKINFDPKKDQDRRG	0.355
DESAHKLVHDMMDAIRQNNPERVEQLADPNVKIEYGDEVIQGRENVSTTMKEILEKQRVEYNFKRVDDHNGQVRADVEVEVEHNGEPHRDKLIVHAERHNGRIRYVELQHDG	-0.174
DESAIHDVTNLLHNIQTGNPDEVDKHMDKHVKLNVGDKQISGRHRVRKKVEREKKEIRIHITVYHMRSRPGRVKIDATRENEHNGTPHSHRVIVDVRYDNGKIVNFRVEDVK	0.366
DESAIQHWRKMLEAVETGDEKKIQKQADPNAKFRVGDKVIHGREKYAKQKVQEARQIRVEIDIKDWENRPGRVNLDADARYEINGQPVTFRLEVEMRMHNGHFVSVDVQFDEEKWEKLHK	0.037
DESAKRKFEEFLEQIRHNNPDELKKMMDKDVRVNIGDKEINGRDQVKNELERFAKEQRFRIQVKHMSVSNGHLHAKVTVESTHNGSPDSDKFQVQANFQGDKFKEMQWDKDS	-0.189
DESAQRLFEELLKAEHDGDRDRYQQLIDPNARIQVGDKSVKGRENIKHDVYRKHKEIRFSIQSMNNKVDGDKVKVDAKVVKEHDGRPDHAQITATVRARGDKVDEIRKEERK	-0.245

— the NTF2 design screens of Basanta et al. (2020)
